This is an account of results in patent publication US7183387 (Genentech, dated 2007).

For experiment [1], the target named is T1, human FcγRIIA-R131 α subunit extracellular domain-6His-GST fusion (human, UniProt P12318 34-217).
T1 construct: also called FcγRIIA-Arg131; not shown: glutathione S-transferase (GST)
T1 sequence: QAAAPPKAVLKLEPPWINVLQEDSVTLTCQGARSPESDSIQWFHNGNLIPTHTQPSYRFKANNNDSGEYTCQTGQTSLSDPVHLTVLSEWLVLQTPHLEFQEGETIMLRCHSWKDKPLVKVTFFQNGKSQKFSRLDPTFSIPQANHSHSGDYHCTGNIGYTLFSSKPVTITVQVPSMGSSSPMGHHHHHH
As to the kind of experiment: ELISA, IgG:IgE hexamers on receptor-GST.

The target of experiment [2] is T2, human FcγRIIB α subunit extracellular domain-6His-GST fusion (human, UniProt P31994 43-217).
T2 construct: not shown: glutathione S-transferase (GST)
T2 sequence: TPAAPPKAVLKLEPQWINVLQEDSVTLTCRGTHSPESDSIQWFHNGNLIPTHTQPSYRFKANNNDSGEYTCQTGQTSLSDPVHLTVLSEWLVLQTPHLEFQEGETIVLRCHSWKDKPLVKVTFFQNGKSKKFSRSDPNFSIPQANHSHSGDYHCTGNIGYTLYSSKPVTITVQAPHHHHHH
As to the kind of experiment: ELISA, IgG:IgE hexamers on receptor-GST. A general note: In an ELISA, binding on a coated surface is turned into a signal by an enzyme label.

Experiment [3] deals with T3, human FcγRIIIA-F158 α subunit extracellular domain-6His-GST fusion (human, UniProt P08637 17-208).
T3 construct: also called FcγRIIIA-Phe158; not shown: glutathione S-transferase (GST)
As to the kind of experiment: ELISA, IgG:IgE hexamers on receptor-GST.

The target of experiment [4] is T4, human FcγRIIA-H131 α subunit extracellular domain-His6-GST fusion (human, UniProt P12318 34-217).
T4 construct: ECD-6His-GST fusion made in 293 cells; also called FcγRIIA-His131; not shown: glutathione S transferase (GST)
T4 sequence: T1 sequence with R134H
As to the kind of experiment: ELISA, IgG complex, receptor coated.

The target of experiment [5] is T5, human FcγRIIA-R131 α subunit extracellular domain-His6-GST fusion (human, UniProt P12318 34-217).
T5 construct: ECD-6His-GST fusion made in 293 cells; also called FcγRIIA-Arg131; not shown: glutathione S transferase (GST)
T5 sequence: T1 sequence
Put plainly: ELISA, IgG complex, receptor coated.

Experiment [6] addresses T6, human FcγRIIIA-F158 α subunit extracellular domain-His6-GST fusion (human, UniProt P08637 17-208).
T6 construct: ECD-6His-GST fusion made in 293 cells; also called FcγRIIIA-Phe158; not shown: glutathione S transferase (GST)
Put plainly: ELISA, IgG complex, receptor coated.

Experiment [7] concerns the target T7, human FcγRIIA-H131 α subunit extracellular domain-His6-GST fusion protein (human, UniProt P12318 34-217).
T7 construct: also called FcγRIIA-His131; not shown: glutathione S-transferase (GST)
T7 sequence: T1 sequence with R134H
As to the kind of experiment: ELISA; binding ratio on FcγRIIA-H131 divided by that on FcγRIIA-R131.

Experiment [8] addresses T7, human FcγRIIA-H131 α subunit …. As to the kind of experiment: ELISA, IgG:IgE hexamer on coated FcγRIIA-H131-GST.

Substitutions are numbered along the chain they refer to. Names and notes keep the numbering of the source.

T6 sequence (P08637 other isoform, or with tags, fused parts or gaps, form in doubt): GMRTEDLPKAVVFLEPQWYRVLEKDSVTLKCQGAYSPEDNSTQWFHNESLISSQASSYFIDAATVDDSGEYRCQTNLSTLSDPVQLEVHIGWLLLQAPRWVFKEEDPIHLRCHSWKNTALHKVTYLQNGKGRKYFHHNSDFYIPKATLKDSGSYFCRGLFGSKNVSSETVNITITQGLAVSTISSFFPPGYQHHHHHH
T3 sequence (P08637 other isoform, or with tags, fused parts or gaps, form in doubt): as above

B1: E27 IgG1 variant S267(280)A/D280(295)A (antibody)
heavy: not shown
light: DIQLTQSPSSLSASVGDRVTITCRASKPVDGEGDSYLNWYQQKPGKAPKLLIYAASYLESGVPSRFSGSGSGTDFTLTISSLQPEDFATYYCQQSHEDPYTFGQGTKVEIKRTVAAPSVFIFPPSDEQLKSGTASVVCLLNNFYPREAKVQWKVDNALQSGNSQESVTEQDSKDSTYSLSSTLTLSKADYEKHKVYACEVTHQGLSSPVTKSFNRGEC
notes: also called IG2 248
Consider B1, for which the entries for the “ratio to native IgG1” value in experiment [1], in experiment [2] and in experiment [3] were 1.54, 1.96 and 1.13, respectively.

B2: anti-IgE E27 IgG1 variant K320(339)A (antibody)
heavy: not shown
light: B1 light
notes: Fc variant of E27; also called IG2 48; Lys320Ala
Take B2: the “ratio of binding, variant/native IgG1 (mean)” value in experiment [4] turned out to be 1.16 ratio; in experiment [5], 1.12 ratio; in experiment [6] it was 0.87 ratio.

B3: anti-IgE E27 IgG1 variant K317(336)A (antibody)
heavy: not shown
light: B1 light
notes: Fc variant of E27; also called IG2 46; Lys317Ala
Turning to B3, the “ratio of binding, variant/native IgG1 (mean)” value in experiment [4] was 1.04 ratio; in experiment [5], 1.13 ratio; in experiment [6], 1.1 ratio.

B4: E27 IgG1 variant T256(269)A/S298(317)A (antibody)
heavy: not shown
light: B1 light
notes: also called IG2 1059
For the molecule B4, the results for the “ratio to native IgG1” value in experiment [1], in experiment [2] and in experiment [3] were 0.44, 0.22 and 1.41, respectively.

B5: E27 IgG1 variant S298(317)A/K334(353)A (antibody)
heavy: not shown
light: B1 light
Consider B5, for which the entries for the “ratio to native IgG1” value in experiment [1], in experiment [2] and in experiment [3] were 0.41, 0.19 and 1.62, respectively.

B6: E27 IgG1 variant S267(280)A/E258(271)A/D280(295)A/R255(268)A (antibody)
heavy: EVQLVESGGGLVQPGGSLRLSCAVSGYSITSGYSWNWIRQAPGKGLEWVASIKYSGETKYNPSVKGRITISRDDSKNTFYLQMNSLRAEDTAVYYCARGSHYFGHWHFAVWGQGTLVTVSSASTKGPSVFPLAPSSKSTSGGTAALGCLVKDYFPEPVTVSWNSGALTSGVHTFPAVLQSSGLYSLSSVVTVPSSSLGTQTYICNVNHKPSNTKVDKKVEPKSCDKTHTCPPCPAPELLGGPSVFLFPPKPKDTLMISATPAVTCVVVDVAHEDPEVKFNWYVAGVEVHNAKTKPREEQYNSTYRVVSVLTVLHQDWLNGKEYKCKVSNKALPAPIEKTISKAKGQPREPQVYTLPPSREEMTKNQVSLTCLVKGFYPSDIAVEWESNGQPENNYKTTPPVLDSDGSFFLYSKLTVDKSRWQQGNVFSCSVMHEALHNHYTQKSLSLSPGK
light: B1 light
notes: also called IG2 264
B6: the “ratio to native IgG1” value in experiment [1] was determined as 1.48; in experiment [2] it was 2.03; in experiment [3] it was 0.89.

B7: anti-IgE E27 IgG1 variant Asp270Ala (antibody)
heavy: not shown
light: B1 light
notes: also called D270(283)A; D283A
Consider B7, for which the H131/R131 in experiment [7] is 16.6 ratio (H131 value/R131 value). In addition, the “ratio of binding of the variant to that of native IgG1” value in experiment [8] is 0.45 ratio (variant/native IgG1).

B8: E27 IgG1 variant S267(280)A/E272(285)A (antibody)
heavy: not shown
light: B1 light
notes: also called IG2 250
For the molecule B8, the “ratio to native IgG1” value in experiment [1] was 1.51; in experiment [2] it was 1.82; in experiment [3], 0.95.

B9: E27 IgG1 variant T256(269)A/D280(295)A/S298(317)A/T307(326)A (antibody)
heavy: B6 heavy with A259R, T260A, A262E, A271S, S302A, T311A
light: B1 light
notes: also called IG2 1051
For the molecule B9, the results for the “ratio to native IgG1” value in experiment [1], in experiment [2] and in experiment [3] were 0.47, 0.3 and 1.21, respectively.

B10: E27 IgG1 variant S267(280)A/R255(268)A (antibody)
heavy: not shown
light: B1 light
notes: also called IG2 247
Take B10: the “ratio to native IgG1” value came out at 1.6 in experiment [1], 1.72 in experiment [2] and 0.88 in experiment [3].

B11: E27 IgG1 variant T256(269)A/D280(295)A/R292(309)A/S298(317)A/T307(326)A (antibody)
heavy: B6 heavy with A259R, T260A, A262E, A271S, R296A, S302A, T311A
light: B1 light
With B11, the results for the “ratio to native IgG1” value in experiment [1], in experiment [2] and in experiment [3] were 0.11, 0.08 and 0.9, respectively.

B12: E27 IgG1 variant S298(317)A/E333(352)A/K334(353)A (antibody)
heavy: B6 heavy with A259R, A262E, A271S, A284D, S302A, E337A, K338A
light: B1 light
notes: also called IG2 110
B12: the “ratio to native IgG1” value in experiment [1] came to 0.34; in experiment [2] it was 0.15; in experiment [3], 1.51.

B13: E27 IgG1 variant S267(280)A/E258(271)A (antibody)
heavy: not shown
light: B1 light
As to B13, the “ratio to native IgG1” value in experiment [1] stood at 1.62; in experiment [2], 2.01; in experiment [3] it was 1.04.

B14: E27 IgG1 variant S267(280)A/E293(310)A (antibody)
heavy: not shown
light: B1 light
notes: also called IG2 251
As for B14, the “ratio to native IgG1” value in experiment [1] is 1.67; in experiment [2] it was 1.85; in experiment [3] it was 0.92.

B15: anti-IgE E27 IgG1 variant N315(334)A (antibody)
heavy: not shown
light: B1 light
notes: Fc variant of E27; also called IG2 45; Asn315Ala
In the case of B15, the “ratio of binding, variant/native IgG1 (mean)” value in experiment [4] worked out at 1.11 ratio; in experiment [5] it was 1.15 ratio; in experiment [6] it was 1.07 ratio.

B16: E27 IgG1 variant S298(317)A/E333(352)A (antibody)
heavy: not shown
light: B1 light
As to B16, the “ratio to native IgG1” value in experiment [1] worked out at 0.34; in experiment [2], 0.16; in experiment [3] it was 1.53.

B17: anti-IgE E27 IgG1 variant S267(280)A/H268(281)A (antibody)
heavy: not shown
light: B1 light
notes: Fc variant of E27; also called IG2 96; Ser267Ala/His268Ala
B17: the figures for the “ratio of binding, variant/native IgG1 (mean)” value in experiment [4], in experiment [5] and in experiment [6] were 1.07 ratio, 1.54 ratio and 0.84 ratio, respectively.

B18: E27 IgG1 variant S267(280)A/H268(281)A (antibody)
heavy: not shown
light: B1 light
notes: also called IG2 96
With B18, the “ratio to native IgG1” value in experiment [1] is 1.41; in experiment [2], 1.56; in experiment [3], 0.96.

B19: anti-IgE E27 IgG1 variant H268(281)A (antibody)
heavy: not shown
light: B1 light
notes: Fc variant of E27; also called IG2 16; G16
With B19, the “ratio of binding, variant/native IgG1 (mean)” value in experiment [4] came to 1.09 ratio; in experiment [5], 1.22 ratio; in experiment [6], 0.52 ratio.
